Data on one molecule can be found in patent US20060252677A1.

Values joined by “and” are separate entries in the source; they are usually repeats but may differ in a detail not shown here. Equal entries are not always repeated.

The experiment addresses T1, Protein-X (novel PSD) expressed from injected RNA in Xenopus oocytes (human) (UniProt Q5T2T1).
T1 sequence: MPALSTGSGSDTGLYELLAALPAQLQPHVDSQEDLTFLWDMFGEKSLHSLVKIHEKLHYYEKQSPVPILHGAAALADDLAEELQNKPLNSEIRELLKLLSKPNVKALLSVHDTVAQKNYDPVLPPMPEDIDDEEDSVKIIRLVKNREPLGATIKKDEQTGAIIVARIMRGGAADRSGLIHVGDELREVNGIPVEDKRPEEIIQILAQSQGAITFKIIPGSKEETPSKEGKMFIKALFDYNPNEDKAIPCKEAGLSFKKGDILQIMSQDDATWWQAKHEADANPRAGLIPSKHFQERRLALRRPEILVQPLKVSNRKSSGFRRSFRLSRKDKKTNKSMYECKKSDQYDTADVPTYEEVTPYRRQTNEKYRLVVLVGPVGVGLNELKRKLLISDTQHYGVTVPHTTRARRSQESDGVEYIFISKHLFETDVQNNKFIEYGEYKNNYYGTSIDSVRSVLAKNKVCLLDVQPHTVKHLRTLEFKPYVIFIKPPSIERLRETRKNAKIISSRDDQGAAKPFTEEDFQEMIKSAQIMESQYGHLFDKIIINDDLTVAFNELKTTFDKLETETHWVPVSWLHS
The experiment in a line: cell-based or functional assay.

B1: PJ01087 protein (Protein-Y) expressed from injected RNA in Xenopus oocytes (protein)
chain: MRGYHGDRGSHPRPARFADQQHMDVGPAARAPYLLGSREAFSTEPRFCAPRAGLGHISPEGPLSLSEGPSVGPEGGPAGAGVGGGSSTFPRMYPGQGPFDTCEDCVGHPQGKGAPRLPPTLLDQFEKQLPVQQDGFHTLPYQRGPAGAGPGPAPGTGTAPEPRSESPSRIRHLVHSVQKLFAKSHSLEAPGKRDYNGPKAEGRGGSGGDSYPGPGSGGPHTSHHHHHHHHHHHHQSRHGKRSKSKDRKGDGRHQAKSTGWWSSDDNLDSDSGFLAGGRPPGEPGGPFCLEGPDGSYRDLSFKGRSGGSEGRCLACTGMSMSLDGQSVKRSAWHTMMVSQGRDGYPGAGPGKGLLGPETKAKARTYHYLQVPQDDWGGYPTGGKDGEIPCRRMRSGSYIKAMGDEESGDSDGSPKTSPKAVARRFTTRRSSSVDQARINCCVPPRIHPRSSIPGYSRSLTTGQLSDELNQQLEAVCGSVFGELESQAVDALDLPGCFRMRSHSYLRAIQAGCSQDDDCLPLLATPAAVSGRPGSSFNFRKAPPPIPPGSQAPPRISITAQSSTDSAHESFTAAEGPARRCSSADGLDGPAMGARTLELAPVPPRASPKPPTLIIKTIPGREELRSLARQRKWRPSIGVQVETISDSDTENRSRREFHSIGVQVEEDKRRARFKRSNSVTAGVQADLELEGLAGLATVATEDKALQFGRSFQRHASEPQPGPRAPTYSVFRTVHTQGQWAYREGYPLPYEPPATDGSPGPAPAPTPGPGAGRRDSWIERGSRSLPDSGRASPCPRDGEWFIKMLRAEVEKLEHWCQQMEREAEDYELPEEILEKIRSAVGSTQLLLSQKVQQFFRLCQQSMDPTAFPVPTFQDLAGFWDLLQLSIEDVTLKFLELQQLKANSWKLLEPKEEKKVPPPIPKKPLRGRGVPVKERSLDSVDRQRQEARKRLLAAKRAASFRHSSATESADSIEIYIPEAQTRL
B1: the current response to the ligand stimulation of the NMDA receptor in oocytes, against Protein-X alone was 7 times and 8 times.
